Results published in patent US20220251241A1 (NGM BIOPHARMACEUTICALS, published 2022).
Numbering of substitutions follows the chain as printed. In names and notes the source's numbering stands. Values belong to the binder of their own block, whether it stands above or below them.

Experiments:
[1] = biological target: T1, HTRA1 (construct not given) (Homo sapiens (Human), UniProt Q92743 23-480, limits assumed); experiment: cell-based or functional assay
[2] = biological target: human delta N-HTRA1 (amino acids 156-480 of SEQ ID NO:1) (human, UniProt Q92743 156-480); experiment: SPR (Biacore); antibody captured by anti-Fc, human delta N-HTRA1 injected; temperature of this table not stated
Sequence of human delta N-HTRA1 (amino acids 156-480 of SEQ ID NO:1) (Q92743 156-480, stated change not applied): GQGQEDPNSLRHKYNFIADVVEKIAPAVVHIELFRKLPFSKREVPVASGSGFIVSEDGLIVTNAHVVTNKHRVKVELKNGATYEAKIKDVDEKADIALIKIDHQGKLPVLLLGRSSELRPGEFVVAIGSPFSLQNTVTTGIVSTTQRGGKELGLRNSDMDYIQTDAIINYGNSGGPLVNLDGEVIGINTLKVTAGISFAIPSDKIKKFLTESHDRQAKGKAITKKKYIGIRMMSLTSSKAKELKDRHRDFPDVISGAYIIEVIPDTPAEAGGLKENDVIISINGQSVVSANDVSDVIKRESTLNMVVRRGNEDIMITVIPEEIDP
Description: (§1) The binding affinities of anti-HTRA1 antibodies to human HTRA1 were measured using a Biacore system (GE Healthcare Life Sciences). Briefly, anti-Fc antibody (Sigma-Aldrich) was immobilized on all four flow cells of a CMS chip using amine coupling reagents (GE Healthcare LifeSciences). Antibodies were captured on flow cells 2, 3, and 4 using flow cell 1 as a reference. Concentrations ranging from 3.3-10 nM of human delta N-HTRA1 were injected at a flow rate of 50 μL/min at 37° C. Kinetic data were collected over time and fit using the simultaneous global fit equation to yield affinity constants (KD values) for each antibody.

[3] = biological target: T1, HTRA1 (construct not stated in the …); experiment: protease inhibition assay, casein substrate (EnzChek); apparent Ki (Ki^app)
Excerpt: Two enzymatic assays were used to characterize HTRA1 protease activity and evaluate inhibitory activity of anti-HTRA1 antibodies. EnzChek® Protease Assay Kit (ThermoFisher Scientific) was used following the manufacturer's instructions. This kit contains casein protein that is heavily labeled with the pH-insensitive green-fluorescent BOPIPY® FL dye that results in almost total quenching of the conjugate's fluorescence. Protease-catalyzed hydrolysis of labeled casein releases highly fluorescent BODIPY® FL dye-labeled peptides. The concomitant increase in fluorescence is proportional to protease activity.
Antibodies identified in HTRA1 binding assays were tested for their ability to inhibit HTRA1 protease activity. The range of antibody concentrations was tested to establish a dose response curve and determine IC₅₀ values.

[4] = biological target: T1, HTRA1 (construct not stated in the …); experiment: protease inhibition assay, H2-Opt peptide substrate (FRET); apparent Ki (Ki^app)
[5] = biological target: T1, HTRA1 (construct not stated in the …); experiment: SPR (Biacore)
Description: as §1
In order to determine whether a hz24F7.v2 variant, comprising one of the amino acid substitutions disclosed in Table 15, retains its HTRA1 binding capability, functional characterization was performed via an SPR assay as described herein and an HTRA1 enzyme assay.

[6] = biological target: T1, HTRA1 (construct not stated in the …); experiment: cell-based or functional assay; remark: listed apart in the source
[7] = biological target: T1, HTRA1 (construct not stated in the …); experiment: cell-based or functional assay; remark: listed apart in the source
[8] = biological target: T1, HTRA1 (construct not stated in the …); experiment: cell-based or functional assay; remark: listed apart in the source
[9] = biological target: T1, HTRA1 (construct not stated in the …); experiment: SPR (Biacore); affinity at baseline

T1 sequence (Q92743 23-480 limits assumed): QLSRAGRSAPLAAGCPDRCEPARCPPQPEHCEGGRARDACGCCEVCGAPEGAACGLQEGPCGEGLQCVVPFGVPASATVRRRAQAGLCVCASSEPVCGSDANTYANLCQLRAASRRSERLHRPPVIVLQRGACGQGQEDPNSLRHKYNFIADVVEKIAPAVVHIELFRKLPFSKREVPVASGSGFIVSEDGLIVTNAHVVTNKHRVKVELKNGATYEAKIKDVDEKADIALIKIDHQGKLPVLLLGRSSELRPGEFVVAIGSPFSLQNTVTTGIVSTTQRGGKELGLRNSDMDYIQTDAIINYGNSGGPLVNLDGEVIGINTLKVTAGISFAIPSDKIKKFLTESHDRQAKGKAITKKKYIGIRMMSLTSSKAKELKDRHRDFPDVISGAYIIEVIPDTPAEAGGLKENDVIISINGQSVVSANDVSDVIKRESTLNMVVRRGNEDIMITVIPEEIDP

IC50, Protease Assay-Casein substrate [1]: 0.06 nM
IC50, Protease Assay-H2-Opt peptide [1]: 0.09 nM
Kd [2]: 0.42 nM
koff [2]: 0.003 s⁻¹
kon [2]: 6.9e+06 M⁻¹ s⁻¹
B1: antibody 65G8 (antibody, V domains shown)
VH: QVQLQQSGPQLVRPGASVKISCKASGYSFTSYWMHWVKQRPGQGLEWIGMIDPSDSETRLNQKFKDKATLTIDKSSSTAYMQLSSPTSEDSAVYYCTRDYFDYWGQGTTLTVSS
VL: QIVLTQSPAIMSTSPGEKVTMTCSASSSVSYMYWYQQKPGSSPRLLIYDTSNLASGVPVRFSGSGSGTSYSLTISRMEAEDAATYYCQQWSSYPYTFGGGTKLEIK
notes: Mouse hybridoma monoclonal antibody

IC50, Protease Assay-Casein substrate [1]: 0.13 nM
IC50, Protease Assay-H2-Opt peptide [1]: 0.13 nM
Kd [2]: 0.45 nM
koff [2]: 0.017 s⁻¹
kon [2]: 3.8e+07 M⁻¹ s⁻¹
B2: antibody 55B12 (antibody, V domains shown)
VH: QVQLQQPGAELVKPGASVKLSCKASGYTFTNYWMHWVKQRPGQGLEWIGNIDPSDSETHYNQKFKDKATLAVDKSSSTAYMQLSSLTSEDSAVYYCAREDSSGYGAYWGQGTLVTVSA
VL: QIVLTQSPAIMSASPGEKVTMTCSASSSVNYMHWYQQKSGTSPKRWIYDTSKLASGVPDRFSGSGSGTSYSLTISSMEAEDAATYYCQQWSSHPLTFGAGTKLELK
notes: as for B1

IC50, Protease Assay-Casein substrate [1]: 0.19 nM
IC50, Protease Assay-H2-Opt peptide [1]: 0.12 nM
Ki [3]: 0.035 nM
Ki [4]: 0.092 nM
Kd [2]: 0.14 nM
koff [2]: 0.0044 s⁻¹
kon [2]: 3e+07 M⁻¹ s⁻¹
B3: antibody 9F8 (antibody, V domains shown)
VH: QVQLQQPGAELVRPGSSVKLSCKASGYAFTTYWMHWVKQRPIQGLEWIGNIDPSDSETHYNQKFRDKATLTVDKSSSTAYMQLSSLTSEDSAVYYCARDYGAFDVWGTGTTVTVSS
VL: QAVVTQESALTTSSGETVTLTCRSSTGAVTTRNFASWVQEKPDHLFTGLIGGTNNRAPGVPARFSGSLIGDKAALTITGAQTEDEAIYFCALWYSNLWVFGGGTKLTVL
notes: as for B1

Kd [5]: 0.0465 nM
koff [5]: 0.000169 s⁻¹
kon [5]: 3.63e+06 M⁻¹ s⁻¹
B4: hz24F7.v2 S91A (antibody, human IgG1, kappa, N297G, V domains shown)
VH: QVQLVQSGAEVKKPGASVKVSCKASGYTFTDYEMHWVRQAPGQRLEWMGAIDPETGGTAYNQKFKGRVTITADKSASTAYMELSSLRSEDTAVYYCTREGYSYEGGGYYFDYWGQGTLVTVSS
VL: DIQMTQSPSSLSASVGDRVTITCSVSSSVSYMYWYQQKPGKAPKLLIYDTSNLASGVPSRFSGSGSGTDFTFTISSLQPEDIATYYCQQWASYPTFGQGTKLEIKR
notes: hz24F7.v2 with a substitution in light chain CDR3

Kd [5]: 0.0405 nM
koff [5]: 0.000184 s⁻¹
kon [5]: 4.54e+06 M⁻¹ s⁻¹
IC50, HTRA1 enzyme assay [6]: 70 pM
IC50 at baseline [7]: 70 pM
IC50, enzyme assay; sample stored pH 7.4, 40° C., 0 weeks [8]: 43.4 pM
IC50, enzyme assay; sample stored pH 7.4, 40° C., 2 weeks [8]: 42 pM
IC50, enzyme assay; sample stored pH 7.4, 40° C., 4 weeks [8]: 54.3 pM
Kd [9]: 0.0405 nM
koff [9]: 0.000184 s⁻¹
kon [9]: 4.54e+06 M⁻¹ s⁻¹
B5: hz24F7.v2 S91Y (antibody, human IgG1, kappa, N297G, V domains shown)
VH: B4 VH
VL: B4 VL with A91Y
notes: as for B4

Kd [5]: 0.0266 nM
koff [5]: 0.000189 s⁻¹
kon [5]: 7.1e+06 M⁻¹ s⁻¹
B6: hz24F7.v2 S91T (antibody, human IgG1, kappa, N297G, V domains shown)
VH: B4 VH
VL: B4 VL with A91T
notes: as for B4

Kd [5]: 0.0439 nM
koff [5]: 0.000161 s⁻¹
kon [5]: 3.67e+06 M⁻¹ s⁻¹
IC50, HTRA1 enzyme assay [6]: 84 pM
B7: hz24F7.v2 S91L (antibody, human IgG1, kappa, N297G, V domains shown)
VH: B4 VH
VL: B4 VL with A91L

Kd [5]: 0.0249 nM
koff [5]: 0.000217 s⁻¹
kon [5]: 8.7e+06 M⁻¹ s⁻¹
IC50, HTRA1 enzyme assay [6]: 67 pM
B8: hz24F7.v2 S92D (antibody, human IgG1, kappa, N297G, V domains shown)
VH: B4 VH
VL: B4 VL with A91S, S92D
notes: as for B4

Kd [5]: 0.0321 nM
koff [5]: 0.000275 s⁻¹
kon [5]: 8.56e+06 M⁻¹ s⁻¹
IC50, HTRA1 enzyme assay [6]: 97 pM
B9: hz24F7.v2 S92Y (antibody, human IgG1, kappa, N297G, V domains shown)
VH: B4 VH
VL: B4 VL with A91S, S92Y
notes: as for B4

Kd [5]: 0.02 nM
koff [5]: 0.000197 s⁻¹
kon [5]: 9.81e+06 M⁻¹ s⁻¹
IC50, HTRA1 enzyme assay [6]: 98 pM
IC50, enzyme assay; sample stored pH 7.4, 40° C., 0 weeks [8]: 67.5 pM
IC50, enzyme assay; sample stored pH 7.4, 40° C., 2 weeks [8]: 75.2 pM
IC50, enzyme assay; sample stored pH 7.4, 40° C., 4 weeks [8]: 93.7 pM
B10: hz24F7.v2 S92T (antibody, human IgG1, kappa, N297G, V domains shown)
VH: B4 VH
VL: B4 VL with A91S, S92T
notes: as for B4
